Results published in a protein production outcome set (Wang et al. 2014).

Assay: label from the status in PepcDB records

Sequence	protein production
MEELQYFPYEKFRPNQREFIEIVKEAVKRGENLIVEAPTGFGKTISVLAGVLPYAISLGYKVVYLARTHKQMDRVIEELRKIGEKSEVSGIEFRSRKDLCLHAYIQTFAQDAYTSMIVCKSLRKLGKCKYYENLKEKRDRVDEIVKFFLSFPPFPREVIEYSELLELCPYEITKKVGEKANVVVASYLYMISPPIRQAFLENLGVDYSDLIVIFDEAHNLPDQAISALSDRLSVRSIERAIKEAEEYGEKDIENFLSILLRGLEILYKEKLENYESEEIPIRPEEVFLHPASILGWRGRDIGMMLEDMIEVGDAIREDRIERNLPPRSYVGRVGEFLWNWLSLRDREDYLHLFTKEKGLALELVALDPSVALDFLEEVHSAIFMSGTLSPLEAFRDIIGVNARLKKFPRIVKRENAIVLVARDVSTRGIERSPPLYKRIAEYIFEAVKNTPKNVGVFTASYEVLEGVLSTNVHIKIEEEVGKKVFIEKKDAPSRENDEMIREFKEESKGKGAVLFGVMGGRNSEGQDYSGDEMNGVILVGIPYARPTPRVQAQTRYFEKKFPGKGRYYGYILPAHRKLAQAAGRVHRSENEKGSIVILDYRVLWKNVKKDLPDWMVETMIPVTLPTLRIKLRRFWRERLNE	failed
MEELSSVGEQVFAAECILSKRLRKGKLEYLVKWRGWSSKHNSWEPEENILDPRLLLAFQKKEHEKEVQNRKRGKRPRGRPRKLTAMSSCSRRSKLKEPDAPSKSKSSSSSSSSTSSSSSSDEEDDSDLDAKRGPRGRETHPVPQKKAQILVAKPELKDPIRKKRGRKPLPPEQKATRRPVSLAKVLKTARKDLGAPASKLPPPLSAPVAGLAALKAHAKEACGGPSAMATPENLASLMKGMASSPGRGGISWQSSIVHYMNRMTQSQAQAASRLALKAQATNKCGLGLDLKVRTQKGELGMSPPGSKIPKAPSGGAVEQKVGNTGGPPHTHGASRVPAGCPGPQPAPTQELSLQVLDLQSVKNGMPGVGLLARHATATKGVPATNPAPGKGTGSGLIGASGATMPTDTSKSEKLASRAVAPPTPASKRDCVKGSATPSGQESRTAPGEARKAATLPEMSAGEESSSSDSDPDSASPPSTGQNPSVSVQTSQDWKPTRSLIEHVFVTDVTANLITVTVKESPTSVGFFNLRHY	failed
MEETPKTTLPHKFLKNILMLDVLKVRIYPNKEQEISLAKSFGCSRFVWNFYLNKTNTQYEETGKGMTYCQMAKDLTQLKKLSDYEWLQEPTAAVLQQSLKNLESAFKNFFSKRAGFPKFKSKHSKQSIRFPESCSIKDSGLKLPKLGIVKVSLSKKINSKIKSVTVSKTSTGKYFAALLFEAKDLTNNKQGKISGIDLGLTSLITVFDGETCYKVDPIKPTRKYAKRLRIRQKALSRKVKGSNNRRKAIKVVAKVHEKISNTRQDFLHKLSRKLVDDNQIIVAENLCVKGLARTKLAKSIHDAGFGMLLNFISYKLEREGGKFVQVDRFFPSSKLCSCCGHKNNLLNLSIREWICPSCQTTHDRDENASRNLRTEGIRILETNTAGHAEIQACGETVRLVGTCAKKRVSEKQESPATLLCG	failed
MEEWPALQWSQGTPASGPALQALEEYAFVPRDDESRQGIRTDALLVIRDGRLLYERYAGATGPQTPHLAWSASKSLLAVLLGVAFGEGRFQLQDPAAKFYPPLEAHPDITLADLLHWASGLDWQEDYEYAPLNSSVVAMLYTRGHRDMAAFTVQQAASGPPGQVFRYSSGDSNLLAASLRGMVGEGQYADYPWRALFEPLGITQAVWERDAAGTFVASSYLYLTARDLARIGLLMQRDGRWRDRQLLPKAWVEFCRTPFRGYRANQDVAVAGGHWWLNREVDGAPRPWPDAPADTYAALGHWGQALYVLPAQRLVIVRYGDDRDGSYQHNELLKRVLAAFATPEQPLEHHHHHH	failed
MEFGYIGLMVSVVLIGISVYGFLNSKNIVRIFLSSEILVNASILIVFSVSSLTNQVYLPIYFSLFAIGMALVEIVVAFAAIFLYYKNKGSLEVE	failed
MEFNLRCSESMPDFSRVGMMDEDIPNVRGRGPSQPRGFLRSQIRAPCALMKGLSDIDQEITMAFIKALAVQHQKRSLERRKIRKKINRILRRVIAISRELHTLNSHPGDWIELGISEFDRIPDCMMPILELAGQGVQLFYKSRRVS	failed
MEGFSPPINTAQVDAKTKLDEKVDYSNLPCPVLYEELNREATMALKPELFEGFRLDYNKSLNQKFFLSHSILMGPTEVPNPTPSSEIIKIPTANYDFGAGFIDPKLYLIGRITTDGRLNARAKFDLTDNFSVKANALLTDEEDKSQGHLVIDYKGSDYRTQLQLGNNSVYAANYIQHVTPHLSLGGEAFWLGQQLMSGVGYAARYETDKTVASGQIASTGVAVMNYVHKVSEKLSFATDFIYNYLSRDVTASVGYDLITRQSRLRGKVDSNGVVAAYLEEQLPIGLRFLLSAEVDHVKKDYKFGFGVNAF	failed
MEGITSFENLPEELKREILLRMSPNSLVTCSRVSKKLASMIRTKSFKELYLSRSMRCPRVLFAANGTITPHVLFTSFQEKEKPLLSSGEQRIITSLQGEFLFSPPVRGLICLVERESARIVICNPGTTKFLALPIVEADETTRIITHLGYDEQKDVFKVLCTRTKPETPHLVLTVGSGKEPWREIVCKFPHTVIGAGVFYRGTLYYLAAFHSKSIIMTFDVRSETFMPITSPDGVDLNQGSWRLVNYSQQGGFALVNESRGFIYQSNGGDAYLETWVWNVDTRKWSMNSILIRKWKDYAQDNEDYDYRFRGTQGTYELVFAPIRVKEDGSLTVILYNTDTQAFRRSKVQMMGEGHEFRFVDTFLDHVDSTLLI	failed
MEGKTLIVSVLIMSLFMAQNQVDANICCPSIQARTFYNACLFAVGSPSSCIRNSSCLDISESTCPRGYTNDILENTGDAVTEYCKLGCVSSVCGALTILQNSDASEIVNGEVEKCTMACSTVCTKGSMNAVENA	failed
MEGLAAFIIITLMIIIVPGPDFFVVMKNSITSGKGNGAMAALGITSGHVVYSLLAVFGIIFILANMYYVFVTIKILGAIYLIYLGIRSIISARQSMNFSTSQLKAQRITYLSSYRQGFFSTILNPKALLYYISILPQFLSTGEAVTSQIAILTAIVTTVILLWFIFCVYIFQYIKLLFTNRKIKAIFDYTVGAILIGLSLNLLLSKSS	failed
MEGNQAGSSLDSLIASFNKRIGELQELVIARNMYPASTIPDLSAIDTALSSMELQVQSIKDRLREETEAIPKAKKLIEASLKQQGKLQKMSIYAPSHFPDKATMLNSDLNRCLLQENAKQYEQHSTLSSLKFDEEAAVLPKEKKGRGSPPLWYITVEELNSLSSYMRGRLTLEKVNAAINDMASYAEANAHLIAASKQKLAENLWEKALKLRDIVTEQAVKGKHFFLETDMKGPSLKLDNTGKAILTVLRHLGRISETRIGQNRVIILMKPH	failed
MEGNSDSMILVTVNPKTKKTTMTSLERDILVKLSGSKTNDQTGYDAKLNAAYAAGGAKMAIMTVQDMLDIKIDKYVQINMEGLVQLVDAVGGITVTNHFDFPISIEEHEPEFTASVEPGTHKINGEQALVYSRMRYDDPDGDYGRQKRQREVISKVLKKILALDSVSKYRKILSAVSKNMQTNIEISSSTIPKLLGYSDALKSIRTYQLKGEGTTIDGGSYQLVTSKELLKAQNRIKGQLGLKKSTAENLKTTASLYENFYGGDTSIYDSSSSASDYSSSGNYSGSSSDYGSSSSYGSNSSSGSSSDYSGQNSYNQGNYQQPAAGTGIGNLEHHHHHH	not failed
MEGSTGFDGDATTFFAPDAVFGDRVRRFQEFLDTFTSYRDSVRSIQVYNSNNAANYNDDQDDADERDLLGDDDGDDLEKEKKAASSTSLNILPHRIIISLDDLREFDRSFWSGILVEPAYFIPPAEKALTDLADSMDDVPHPNASAVSSRHPWKLSFKGSFGAHALSPRTLTAQHLNKLVSVEGIVTKTSLVRPKLIRSVHYAAKTGRFHYRDYTDATTTLTTRIPTPAIYPTEDTEGNKLTTEYGYSTFIDHQRITVQEMPEMAPAGQLPRSIDVILDDDLVDKTKPGDRVNVVGVFKSLGAGGMNQSNSNTLIGFKTLILGNTVYPLHARSTGVAARQMLTDFDIRNINKLSKKKDIFDILSQSLAPSIYGHDHIKKAILLMLMGGVEKNLENGSHLRGDINILMVGDPSTAKSQLLRFVLNTASLAIATTGRGSSGVGLTAAVTTDRETGERRLEAGAMVLADRGVVCIDEFDKMTDVDRVAIHEVMEQQTVTIAKAGIHTTLNARCSVIAAANPVFGQYDVNRDPHQNIALPDSLLSRFDLLFVVTDDINEIRDRSISEHVLRTHRYLPPGYLEGEPVRERLNLSLAVGEDADINPEEHSNSGAGVENEGEDDEDHVFEKFNPLLQAGAKLAKNKGNYNGTEIPKLVTIPFLRKYVQYAKERVIPQLTQEAINVIVKNYTDLRNDDNTKKSPITARTLETLIRLATAHAKVRLSKTVNKVDAKVAANLLRFALLGEDIGNDIDEEESEYEEALSKRSPQKSPKKRQRVRQPASNSGSPIKSTPRRSTASSVNATPSSARRILRFQDDEQNAGEDDNDIMSPLPADEEAELQRRLQLGLRVSPRRREHLHAPEEGSSGPLTEVGTPRLPNVSSAGQDDEQQQSVISFDNVEPGTISTGRLSLISGIIARLMQTEIFEEESYPVASLFERINEELPEEEKFSAQEYLAGLKIMSDRNNLMVADDKVWRV	failed
MEGTLSFVSGFAPAVYRRELFRHRCVTTAPEARAWPRLGLLRANSGARLSRVDITPEIYKRLVSMAKRTEGNFSAVAGAILESYLTAATNRDLRAVIFDMDGVLCDSERLSRAAGVEYFRRYHGVWPTEKDFADFAGTGEAAFLSGVARRYSVKDFDVNKAKEGFFNIYVNEYVSALEPFEGVREFIQQIKTMGLKTALASSADAIKVHANLSAIGFERDMFDFVTRSDEIANKKPAPDIFLAAAEGLGVPPESCVVIEDAPAGVLAAKRARMRCVAVATSVSAQLLWDAGADIVRPAPQYIMLDDIVITDDADASAPASASQE	failed
MEGYSRNGEISPKLLDLMIPQERRNWFHDEKNSVFKTEEKKLELKLGPPGEEDDDESMIRHMKKEPKDKSILSLAGKYFSPSSTKTTSHKRTAPGPVVGWPPVRSFRKNLASGSSSKLGNDSTTSNGVTLKNQKCDAAAKTTEPKRQGGMFVKINMYGVPIGRKVDLSAHNSYEQLSFTVDKLFRGLLAAQRDFPSSIEDEKPITGLLDGNGEYTLTYEDNEGDKMLVGDVPWQMFVSSVKRLRVIKTSEISSALTYGNGKQEKMRR	failed
MEHSSGTKLLLTLSLFFCLISGAEAADSHALDSGDVNLSELKAFDLLCKCETWGIVNTVSLSSTGNYLVAGGFDRNVSLFDSRGTQLWNYKTEDIVYTVSISSDGSRIVAGSNDKKVYFFNREGDLLWSHKTGGNINSVAVSSNGLYVAAGGEDGKVYFMNSAGKLLWSFDSEAAVRSIAISRDGTYVAVGNANNYVYLFDSEGKTIWNRKTGSLINCVSMTPYAYYVAAGGSNYNVYLFDRKGEFSWMNNPGYWVSSVSLTTNGAYLAAGSFDDMIYLFNRTGGKIWDYKAKDDVYAVEISADSSFIAAGSWDDTLYVLNMDGEELWNYNCGGNINSLDVSRDSTTIAVGSDAGAVYLFERNPTAFALLLGDESFLPEETTKETDTSLAEKTIKPIEEETAVTGGVENKVEDAPATSSSVSGNPKTGENPGSEELPTEESSLKLLEKFDSIKFPAALLLGALAGTVFFLKRRLVKYHEKNDENLEDLEEKDIRE	failed
MEIAPSTSRFKLYDQFELLEFPDKYVVKPIESPEEGFSVNRRDGNIKPLDENASSGSPTRVSTIYGVGGTIRLLAGTYLLVITSREEVGNFLGLPIFRVTAMKFLPCNEALRFATAQEKKDETYFRTLLQALETTPGLYFSYETDLTLNLQRRCKLAEGWNRKPMWKQADPRYVWNWHLLEDLIECKLDGFIIPILQGSYQVAELKLKNSPAVVSIMSRRCTRRLGTRMWRRGANLEGDAANFVESEQIVEINGFKFSLLQVRGSIPLLWEQIVDLSYKPRLKINKHEETPKVVQRHFHDLCQRYGEIMAVDLTDQHGDEGALSKAYATEMEKLPDVRYVSFDFHQVCGTTNFDNLGVLYEQIGDEFEKQGYFLVDADENILEEQKGVIRSNCIDCLDRTNVTQSFMGQKSLNLQLQRIGVCDSTECISTFEDDYTKFRTIWAEQGDEVSLQYAGTYALKGDLVRYGKQTMTGAIKDGLSAMSRYYLNNFQDGVRQDALDLISGRYTVGTHSPSQLQPIGSQPSFLPVASALLIGGVTVTSFTIHQAGRNTQQYLASALWAGVTAGVVAMIKANGRHLTSRPRLCHLI	failed
